Experimental findings from US8759300 are described below.

In experiment [1] the target is transforming growth factor-β1 (TGF-β1) (human) (UniProt P01137). Put plainly: equilibrium binding.
Experiment [2] concerns the target platelet-derived growth factor-BB (PDGF-BB) (human) (UniProt P01127). Description: peptide binding to PDGF-BB.
For experiment [3] the target is unchanged. Put plainly: equilibrium binding.
The target is the same in experiment [4]. Description: method not restated (same value as FN634-648 in paragraph 247).

Sequence of platelet-derived growth factor-BB (PDGF-BB) (human) (P01127 82-190 limits assumed): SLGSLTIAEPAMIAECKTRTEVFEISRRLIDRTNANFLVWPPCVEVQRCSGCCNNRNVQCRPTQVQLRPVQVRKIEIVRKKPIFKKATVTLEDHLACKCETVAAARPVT
Sequence of transforming growth factor-β1 (TGF-β1) (human) (P01137 279-390 limits assumed): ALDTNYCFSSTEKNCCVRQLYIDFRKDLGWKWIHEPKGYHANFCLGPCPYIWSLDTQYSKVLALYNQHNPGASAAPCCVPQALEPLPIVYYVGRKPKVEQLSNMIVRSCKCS

B1: peptide 3 … (peptide)
peptide: NGQTPIQRTIKPDVRSYTITGLQPGT
In experiment [1], B1 yielded a Kd of 140 nM.

B2: peptide 2 (FN680-704) … (peptide)
peptide: QLISIQQYGHQEVTRFDFTTTSTST
Regarding B2, the Kd in experiment [1] turned out to be 270 nM; in experiment [2] it was 110 nM.

B3: peptide 1B … (peptide)
peptide: ILRWRPKNSVGRWK
B3 had a dissociation constant Kd in experiment [1] of 400 nM.

B4: FN630-648 … (peptide)
peptide: WNAPQPSHISKYILRWRPK
In experiment [2], B4 registered a Kd of 340 nM.

B5: peptide 4 (FN2043-2067) … (peptide)
peptide: QPSVGQQMIFEEHGFRRTTPPTTAT
For the molecule B5, the Kd in experiment [1] came to 100 nM.

B6: peptide 1 (FN634-658) … (peptide)
peptide: QPSHISKYILRWRPKNSVGRWKEAT
For B6, the equilibrium dissociation constant (Kd) came to 130 nM in experiment [1], 250 nM in experiment [3] and 250 nM in experiment [2].

B7: peptide 1A (FN634-648) … (peptide)
peptide: QPSHISKYILRWRPK
Consider B7, for which the Kd in experiment [1] stood at 440 nM; in experiment [4], 450 nM; in experiment [2], 450 nM.
